Experimental data taken from IntAct's records for PubMed 31515488.

B1: Scaffold protein ILK (Homo sapiens), Q13418 (parent)
chain: MDDIFTQCREGNAVAVRLWLDNTENDLNQGDDHGFSPLHWACREGRSAVVEMLIMRGARINVMNRGDDTPLHLAASHGHRDIVQKLLQYKADINAVNEHGNVPLHYACFWGQDQVAEDLVANGALVSICNKYGEMPVDKAKAPLRELLRERAEKMGQNLNRIPYKDTFWKGTTRTRPRNGTLNKHSGIDFKQLNFLTKLNENHSGELWKGRWQGNDIVVKVLKVRDWSTRKSRDFNEECPRLRIFSHPNVLPVLGACQSPPAPHPTLITHWMPYGSLYNVLHEGTNFVVDQSQAVKFALDMARGMAFLHTLEPLIPRHALNSRSVMIDEDMTARISMADVKFSFQCPGRMYAPAWVAPEALQKKPEDTNRRSADMWSFAVLLWELVTREVPFADLSNMEIGMKVALEGLRPTIPPGISPHVCKLMKICMNEDPAKRPKFDMIVPILEKMQDK
partner: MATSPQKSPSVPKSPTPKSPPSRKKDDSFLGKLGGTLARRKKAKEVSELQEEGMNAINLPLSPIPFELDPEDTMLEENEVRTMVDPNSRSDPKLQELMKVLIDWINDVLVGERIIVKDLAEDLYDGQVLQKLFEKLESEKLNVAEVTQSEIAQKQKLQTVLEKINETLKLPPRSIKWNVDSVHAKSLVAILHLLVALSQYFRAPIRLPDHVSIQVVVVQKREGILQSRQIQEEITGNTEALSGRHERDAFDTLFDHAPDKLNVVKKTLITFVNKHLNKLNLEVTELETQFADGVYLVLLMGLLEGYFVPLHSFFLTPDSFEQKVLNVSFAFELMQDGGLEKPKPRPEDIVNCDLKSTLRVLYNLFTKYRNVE

Variants of: B1
Conditions: with parva_human PARVA

effect of a mutation on the interaction	Variant
disrupting interaction strength	MDDIFTQCREGNAVAVRLWLDNTENDLNQGDDHGFSPLHWACREGRSAVVEMLIMRGARINVMNRGDDTPLHLAASHGHRDIVQKLLQYKADINAVNEHGNVPLHYACFWGQDQVAEDLVANGALVSICNKYGEMPVDKAKAPLRELLRERAEKMGQNLNRIPYKDTFWKGTTRTRPRNGTLNKHSGIDFKQLNFLTKLNENHSGELWKGRWQGNDIVVKVLNVRDWSTRKSRDFNEECPRLRIFSHPNVLPVLGACQSPPAPHPTLITHWMPYGSLYNVLHEGTNFVVDQSQAVKFALDMARGMAFLHTLEPLIPRHALNSRSVMIDEDMTARISMADVKFSFQCPGRMYAPAWVAPEALQKKPEDTNRRSADMWSFAVLLWELVTREVPFADLSNMEIGMKVALEGLRPTIPPGISPHVCKLMKICMNEDPAKRPKFDMIVPILEKMQDK [K223N]
with no effect	MDDIFTQCREGNAVAVRLWLDNTENDLNQGDDHGFSPLHWACREGRSAVVEMLIMRGARINVMNRGDDTPLHLAASHGHRDIVQKLLQYKADINAVNEHGNVPLHYACFWGQDQVAEDLVANGALVSICNKYGEMPVDKAKAPLRELLRERAEKMGQNLNRIPYKDTFWKGTTRTRPRNGTLNKHSGIDFKQLNFLTKLNENHSGELWKGRWQGNDIVVKVLKVRDWSTRKSRDFNEECPRLRIFSHPNVLPVLGACQSPPVPHPTLITHWMPYGSLYNVLHEGTNFVVDQSQAVKFALDMARGMAFLHTLEPLIPRHALNSRSVMIDEDMTARISMADVKFSFQCPGRMYAPAWVAPEALQKKPEDTNRRSADMWSFAVLLWELVTREVPFADLSNMEIGMKVALEGLRPTIPPGISPHVCKLMKICMNEDPAKRPKFDMIVPILEKMQDK [A262V]
disrupting interaction strength	MDDIFTQCREGNAVAVRLWLDNTENDLNQGDDHGFSPLHWACREGRSAVVEMLIMRGARINVMNRGDDTPLHLAASHGHRDIVQKLLQYKADINAVNEHGNVPLHYACFWGQDQVAEDLVANGALVSICNKYGEMPVDKAKAPLRELLRERAEKMGQNLNRIPYKDTFWKGTTRTRPRNGTLNKHSGIDFKQLNFLTKLNENHSGELWKGRWQGNDIVVKVLKVRDWSTRKSRDFNEECPRLRIFSHPNVLPVLGACQSPPAPHPTLITHWMPYGSLHNVLHEGTNFVVDQSQAVKFALDMARGMAFLHTLEPLIPRHALNSRSVMIDEDMTARISMADVKFSFQCPGRMYAPAWVAPEALQKKPEDTNRRSADMWSFAVLLWELVTREVPFADLSNMEIGMKVALEGLRPTIPPGISPHVCKLMKICMNEDPAKRPKFDMIVPILEKMQDK [Y278H]
with no effect	MDDIFTQCREGNAVAVRLWLDNTENDLNQGDDHGFSPLHWACREGRSAVVEMLIMRGARINVMNRGDDTPLHLAASHGHRDIVQKLLQYKADINAVNEHGNVPLHYACFWGQDQVAEDLVANGALVSICNKYGEMPVDKAKAPLRELLRERAEKMGQNLNRIPYKDTFWKGTTRTRPRNGTLNKHSGIDFKQLNFLTKLNENHSGELWKGRWQGNDIVVKVLKVRDWSTRKSRDFNEECPRLRIFSHPNVLPVLGACQSPPAPHPTLITHWMPYGSLYNVLHEGTNFVVDQSQAVKFALDMARGMAFLHTIEPLIPRHALNSRSVMIDEDMTARISMADVKFSFQCPGRMYAPAWVAPEALQKKPEDTNRRSADMWSFAVLLWELVTREVPFADLSNMEIGMKVALEGLRPTIPPGISPHVCKLMKICMNEDPAKRPKFDMIVPILEKMQDK [L311I]
with no effect	MDDIFTQCREGNAVAVRLWLDNTENDLNQGDDHGFSPLHWACREGRSAVVEMLIMRGARINVMNRGDDTPLHLAASHGHRDIVQKLLQYKADINAVNEHGNVPLHYACFWGQDQVAEDLVANGALVSICNKYGEMPVDKAKAPLRELLRERAEKMGQNLNRIPYKDTFWKGTTRTRPRNGTLNKHSGIDFKQLNFLTKLNENHSGELWKGRWQGNDIVVKVLKVRDWSTRKSRDFNEECPRLRIFSHPNVLPVLGACQSPPAPHPTLITHWMPYGSLYNVLHEGTNFVVDQSQAVKFALDMARGMAFLHTLEPHIPRHALNSRSVMIDEDMTARISMADVKFSFQCPGRMYAPAWVAPEALQKKPEDTNRRSADMWSFAVLLWELVTREVPFADLSNMEIGMKVALEGLRPTIPPGISPHVCKLMKICMNEDPAKRPKFDMIVPILEKMQDK [L314H]
with no effect	MDDIFTQCREGNAVAVRLWLDNTENDLNQGDDHGFSPLHWACREGRSAVVEMLIMRGARINVMNRGDDTPLHLAASHGHRDIVQKLLQYKADINAVNEHGNVPLHYACFWGQDQVAEDLVANGALVSICNKYGEMPVDKAKAPLRELLRERAEKMGQNLNRIPYKDTFWKGTTRTRPRNGTLNKHSGIDFKQLNFLTKLNENHSGELWKGRWQGNDIVVKVLKVRDWSTRKSRDFNEECPRLRIFSHPNVLPVLGACQSPPAPHPTLITHWMPYGSLYNVLHEGTNFVVDQSQAVKFALDMARGMAFLHTLEPLIPRHALNSRSVMIDEDMTARISMADGKFSFQCPGRMYAPAWVAPEALQKKPEDTNRRSADMWSFAVLLWELVTREVPFADLSNMEIGMKVALEGLRPTIPPGISPHVCKLMKICMNEDPAKRPKFDMIVPILEKMQDK [V340G]
